The record followed here is PMC9482650, “Quantitative fragmentomics allow affinity mapping of interactomes” (Nature Communications, 2022).

This assay concerns HEK293T cells. Kind of assay: Label-free MS proteome of stable cell lines expressing HPV16 E6 or E6ΔPBM. Type of assay: cell-based, human. As to conditions: protein level; for Difference log2 E6/Ctrl / Ratio E6/Ctrl: E6 cell line vs control; for Difference log2 dPBM/E6 / Ratio dPBM/E6: dPBM cell line vs E6 cell line; for Difference log2 dPBM/Ctrl / Ratio dPBM/Ctrl: dPBM cell line vs control. The procedure: HEK293T and HeLa cells were authenticated and found 100% identity to ATCC cat. CRL-3216 and ATCC cat. CCL-2, respectively. Jurkat and HaCat cell lines were not authenticated (original source: ECACC and Deutsches Krebsforschungszentrum DKFZ, respectively). HeLa cells were grown in DMEM (1 g/L glucose, Gibco) medium completed with 5% FCS and 40 μg/mL gentamicin, diluted every 3rd/4th day 1/10. HaCat cells were grown in DMEM (1 g/L glucose, Gibco) medium completed with 10% FCS and 40 μg/mL gentamicin, diluted every 3rd/4th day 1/4. Jurkat cells were grown in RPMI (Gibco) medium completed with 10% FCS and 40 μg/mL gentamicin, diluted every 3rd/4th day 1/12. All cells were kept at 37 °C and 5% CO2. For proteomics analyses cells were seeded on T-175 flasks. After they reached confluency, adherent cells were washed with PBS once and collected by scraping with ice-cold lysis buffer (Hepes-KOH pH 7.5 50 mM, NaCl 150 mM, Triton X-100 1%, complete EDTA-free protease inhibitor cocktail 1×, EDTA 2 mM, TCEP 5 mM, glycerol 10%). Jurkat cells were collected by 1000 g × centrifugation, washed once with PBS, then collected by 1000 g × 5 min centrifugation again and lysed in ice-cold lysis buffer. Lysates were sonicated 4 × 20 s with 1 s long pulses on ice, then incubated rotating at 4 °C for 30 min. Lysates were centrifuged at 12,000 rpm 4 °C for 20 min and supernatant was kept for further analysis. Concentration determination was carried out by standard Bradford method (Bio-Rad Protein Assay Dye Reagent #5000006) using BSA (MP BIomedicals #160069) as control on a Bio-Rad SmartSpec 3000 spectrophotometer instrument.
The samples were precipitated with TCA 20% overnight at 4 °C and centrifuged at 14,000 rpm for 10 min at 4 °C. The protein pellets were washed twice with 1 mL cold acetone and air dried. The protein extracts were solubilized in urea 8 M, reduced with 5 mM TCEP for 30 min, and alkylated with 10 mM iodoacetamide for 30 min in the dark. Double digestion was performed at 37 °C with 500 ng endoproteinase Lys-C for 4 h, followed by fourfold dilution and an overnight digestion with 500 ng trypsin. Peptide mixtures were then desalted on C18 spin-column and dried on Speed-Vacuum.
Samples were analyzed using an Ultimate 3000 nano-RSLC (Thermo Scientific, San Jose California) coupled in line with a LTQ-Orbitrap ELITE mass spectrometer via a nano-electrospray ionization source (Thermo Scientific, San Jose California). Peptide mixtures were injected in 0.1% TFA on a C18 Acclaim PepMap100 trap-column (75 µm ID × 2 cm, 3 µm, 100 Å, Thermo Fisher Scientific) for 3 min at 5 µL/min with 2% ACN, 0.1% FA in H2O and then separated on a C18 Accucore nano-column (75 µm ID × 50 cm, 2.6 µm, 150 Å, Thermo Fisher Scientific) at 220 nl/min and 38 °C with a 90 min linear gradient from 5% to 30% buffer B (A: 0.1% FA in H2O/B: 99% ACN, 0.1% FA in H2O), regeneration at 5% B. The mass spectrometer was operated in positive ionization mode, in data-dependent mode with survey scans from m/z 350–1500 acquired in the Orbitrap at a resolution of 120,000 at m/z 400. The 20 most intense peaks from survey scans were selected for further fragmentation in the Linear Ion Trap with an isolation window of 2.0 Da and were fragmented by CID with normalized collision energy of 35%. (TOP20CID method) Unassigned and single charged states were excluded from fragmentation. The Ion Target Value for the survey scans (in the Orbitrap) and the MS2 mode (in the Linear Ion Trap) were set to 1E6 and 5E3 respectively and the maximum injection time was set to 100 ms for both scan modes. Dynamic exclusion was set to 20 s after one repeat count with mass width at ±10 ppm.
Proteins were identified by database searching using SequestHT (Thermo Fisher Scientific) with Proteome Discoverer 2.4 software (PD2.4, Thermo Fisher Scientific) on human FASTA database downloaded from SwissProt (reviewed, release 2020_11_27, 20304 entries, https://www.uniprot.org/). […]

B1: ZW10 (protein, UniProt O43264 2-779, looked up)
Centromere/kinetochore …: ASFVTEVLAHSGRLEKEDLGTRISRLTRRVEEIKGEVCNMISKKYSEFLPSMQSAQGLITQVDKLSEDIDLLKSRIESEVRRDLHVSTGEFTDLKQQLERDSVVLSLLKQLQEFSTAIEEYNCALTEKKYVTGAQRLEEAQKCLKLLKSRKCFDLKILKSLSMELTIQKQNILYHLGEEWQKLIVWKFPPSKDTSSLESYLQTELHLYTEQSHKEEKTPMPPISSVLLAFSVLGELHSKLKSFGQMLLKYILRPLASCPSLHAVIESQPNIVIIRFESIMTNLEYPSPSEVFTKIRLVLEVLQKQLLDLPLDTDLENEKTSTVPLAEMLGDMIWEDLSECLIKNCLVYSIPTNSSKLQQYEEIIQSTEEFENALKEMRFLKGDTTDLLKYARNINSHFANKKCQDVIVAARNLMTSEIHNTVKIIPDSKINVPELPTPDEDNKLEVQKVSNTQYHEVMNLEPENTLDQHSFSLPTCRISESVKKLMELAYQTLLEATTSSDQCAVQLFYSVRNIFHLFHDVVPTYHKENLQKLPQLAAIHHNNCMYIAHHLLTLGHQFRLRLAPILCDGTATFVDLVPGFRRLGTECFLAQMRAQKGELLERLSSARNFSNMDDEENYSAASKAVRQVLHQLKRLGIVWQDVLPVNIYCKAMGTLLNTAISEVIGKITALEDISTEDGDRLYSLCKTVMDEGPQVFAPLSEESKNKKYQEEVPVYVPKWMPFKELMMMLQASLQEIGDRWADGKGPLAAAFSSSEVKALIRALFQNTERRAAALAKIK
On to B1, for which the “Difference log2 E6/Ctrl” value was determined as 1.251, the “Ratio E6/Ctrl” value was found to be 2.38, the “Difference log2 dPBM/E6” value is -3.211 and the “Ratio dPBM/E6” value worked out at 0.108. Further, the “Difference log2 dPBM/Ctrl” value is recorded as -1.96 and the “Ratio dPBM/Ctrl” value is 0.2569.

B2: UBA6 (protein, UniProt A0AVT1 1-1052, looked up)
Ubiquitin-like …: MEGSEPVAAHQGEEASCSSWGTGSTNKNLPIMSTASVEIDDALYSRQRYVLGDTAMQKMAKSHVFLSGMGGLGLEIAKNLVLAGIKAVTIHDTEKCQAWDLGTNFFLSEDDVVNKRNRAEAVLKHIAELNPYVHVTSSSVPFNETTDLSFLDKYQCVVLTEMKLPLQKKINDFCRSQCPPIKFISADVHGIWSRLFCDFGDEFEVLDTTGEEPKEIFISNITQANPGIVTCLENHPHKLETGQFLTFREINGMTGLNGSIQQITVISPFSFSIGDTTELEPYLHGGIAVQVKTPKTVFFESLERQLKHPKCLIVDFSNPEAPLEIHTAMLALDQFQEKYSRKPNVGCQQDSEELLKLATSISETLEEKPDVNADIVHWLSWTAQGFLSPLAAAVGGVASQEVLKAVTGKFSPLCQWLYLEAADIVESLGKPECEEFLPRGDRYDALRACIGDTLCQKLQNLNIFLVGCGAIGCEMLKNFALLGVGTSKEKGMITVTDPDLIEKSNLNRQFLFRPHHIQKPKSYTAADATLKINSQIKIDAHLNKVCPTTETIYNDEFYTKQDVIITALDNVEARRYVDSRCLANLRPLLDSGTMGTKGHTEVIVPHLTESYNSHRDPPEEEIPFCTLKSFPAAIEHTIQWARDKFESSFSHKPSLFNKFWQTYSSAEEVLQKIQSGHSLEGCFQVIKLLSRRPRNWSQCVELARLKFEKYFNHKALQLLHCFPLDIRLKDGSLFWQSPKRPPSPIKFDLNEPLHLSFLQNAAKLYATVYCIPFAEEDLSADALLNILSEVKIQEFKPSNKVVQTDETARKPDHVPISSEDERNAIFQLEKAILSNEATKSDLQMAVLSFEKDDDHNGHIDFITAASNLRAKMYSIEPADRFKTKRIAGKIIPAIATTTATVSGLVALEMIKVTGGYPFEAYKNCFLNLAIPIVVFTETTEVRKTKIRNGISFTIWDRWTVHGKEDFTLLDFINAVKEKYGIEPTMVVQGVKMLYVPVMPGHAKRLKLTMHKLVKPTTEKKYVDLTVSFAPDIDGDEDLPGPPVRYYFSHDTD
Regarding B2, the “Difference log2 E6/Ctrl” value is on record as -0.8956, the “Ratio E6/Ctrl” value is listed as 0.5375, the “Difference log2 dPBM/E6” value is given as 0.6111 and the “Ratio dPBM/E6” value was determined as 1.527. Also, the “Difference log2 dPBM/Ctrl” value is listed as -0.2845 and the “Ratio dPBM/Ctrl” value stood at 0.821.
